Results: US6969760

Biological target: T1, wild type EPO receptor (EPOR) expressed in DA3(EPOR) cells or 3T3 fibroblasts, P14753
T1 chain: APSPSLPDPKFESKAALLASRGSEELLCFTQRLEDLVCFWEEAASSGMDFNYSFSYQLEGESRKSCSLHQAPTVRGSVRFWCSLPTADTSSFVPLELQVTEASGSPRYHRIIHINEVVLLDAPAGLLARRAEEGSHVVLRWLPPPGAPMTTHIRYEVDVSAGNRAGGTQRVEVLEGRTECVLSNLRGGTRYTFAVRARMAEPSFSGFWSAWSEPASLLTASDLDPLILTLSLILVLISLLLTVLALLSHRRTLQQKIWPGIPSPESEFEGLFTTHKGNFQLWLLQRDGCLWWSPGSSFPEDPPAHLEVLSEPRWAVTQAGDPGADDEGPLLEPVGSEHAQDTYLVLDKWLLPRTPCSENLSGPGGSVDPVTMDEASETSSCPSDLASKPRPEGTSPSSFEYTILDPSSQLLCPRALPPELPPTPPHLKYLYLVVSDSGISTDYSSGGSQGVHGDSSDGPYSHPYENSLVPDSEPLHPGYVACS

B1: murine Jak2 protein tyrosine kinase (protein)
chain: MGMACLTMTEMEATSTSPVHQNGDIPGSANSVKQIEPVLQVYLYHSLGQAEGEYLKFPSGEYVAEEICVAASKACGITPVYHNMFALMSETERIWYPPNHVFHIDESTRHDILYRIRFYFPHWYCSGSSRTYRYGVSRGAEAPLLDDFVMSYLFAQWRHDFVHGWIKVPVTHETQEECLGMAVLDMMRIAKEKDQTPLAVYNSVSYKTFLPKCVRAKIQDYHILTRKRIRYRFRRFIQQFSQCKATARNLKLKYLINLETLQSAFYTEQFEVKESARGPSGEEIFATIIITGNGGIQWSRGKHKESETLTEQDVQLYCDFPDIIDVSIKQANQECSNESRIVTVHKQDGKVLEIELSSLKEALSFVSLIDGYYRLTADAHHYLCKEVAPPAVLENIHSNCHGPISMDFAISKLKKAGNQTGLYVLRCSPKDFNKYFLTFAVERENVIEYKHCLITKNENGEYNLSGTKRNFSNLKDLLNCYQMETVRSDSIIFQFTKCCPPKPKDKSNLLVFRTNGISDVQISPTLQRHNNVNQMVFHKIRNEDLIFNESLGQGTFTKIFKGVRREVGDYGQLHKTEVLLKVLDKAHRNYSESFFEAASMMSQLSHKHLVLNYGVCVCGEENILVQEFVKFGSLDTYLKKNKNSINILWKLGVAKQLAWAMHFLEEKSLIHGNVCAKNILLIREEDRRTGNPPFIKLSDPGISITVLPKDILQERIPWVPPECIENPKNLNLATDKWSFGTTLWEICSGGDKPLSALDSQRKLQFYEDKHQLPAPKWTELANLINNCMDYEPDFRPAFRAVIRDLNSLFTPDYELLTENDMLPNMRIGALGFSGAFEDRDPTQFEERHLKFLQQLGKGNFGSVEMCRYDPLQDNTGEVVAVKKLQHSTEEHLRDFEREIEILKSLQHDNIVKYKGVCYSAGRRNLRLIMEYLPYGSLRDYLQKHKERIDHKKLLQYTSQICKGMEYLGTKRYIHRDLATRNILVENENRVKIGDFGLTKVLPQDKEYYKVKEPGESPIFWYAPESLTESKFSVASDVWSFGVVLYELFTYIEKSKSPPVEFMRMIGNDKQGQMIVFHLIELLKSNGRLPRPEGCPDEIYVIMTECWNNNVSQRPSFRDLSFGWIKSGTV
EPO-induced tyrosine phosphorylation of Jak2 in 3T3 fibroblasts expressing EPOR (Jak2 immunoprecipitation, 4G10 blot): Following stimulation of the cells with EPO, a 130 kDa band, co-migrating with Jak2, was readily detected by a monoclonal antibody against phosphotyrosine (4G10)
